{"source": "patent US20020193575A1", "about": "(published 2002)", "biological_target": "T1, recombinant E. coli human IL4 (non-glycosylated) (human, UniProt P05112 25-153)", "T1 sequence (looked up)": "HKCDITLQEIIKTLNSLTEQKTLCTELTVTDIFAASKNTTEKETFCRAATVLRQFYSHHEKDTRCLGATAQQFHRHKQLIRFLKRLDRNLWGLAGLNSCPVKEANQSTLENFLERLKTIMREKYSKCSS", "assay": "cell-based or functional assay"}
{"binder": "humanized 3B9 (IgG1) (antibody, V domains shown) VH: QVTLRESGPALVKPTQTLTLTCTFSGFSLSTSGMGVSWIRQPPGKGLEWLAHIYWDDDKRYNPSLKSRLTISKDTSRNQVVLTMTNMDPVDTATYYCARRETVFYWYFDVWGRGTPVTVSS VL: IVMTQSPDSLAVSLGERATINCKASQSVDYDGDSYMNWYQQKPGQPPKLLIYAASNLESGVPDRFSGSGSGTDFTLTISSLQAEDVAVYYCQQSNEDPPRFGGGTKVEIKR", "values": [{"measurement": "B cell proliferation (3H thymidine), IC50", "value": 0.047, "unit": "nM"}]}
